Here are results for two molecules from patent CN112480258A (HUADAO SHANGHAI BIOMEDICAL CO LTD, dated 2021).

In the experiment the target is T1, Human IL-3Rα/CD123蛋白 (human, UniProt P26951 19-305, limits assumed).
T1 construct: Soluble antigen in the SPR mobile phase
T1 sequence (looked up): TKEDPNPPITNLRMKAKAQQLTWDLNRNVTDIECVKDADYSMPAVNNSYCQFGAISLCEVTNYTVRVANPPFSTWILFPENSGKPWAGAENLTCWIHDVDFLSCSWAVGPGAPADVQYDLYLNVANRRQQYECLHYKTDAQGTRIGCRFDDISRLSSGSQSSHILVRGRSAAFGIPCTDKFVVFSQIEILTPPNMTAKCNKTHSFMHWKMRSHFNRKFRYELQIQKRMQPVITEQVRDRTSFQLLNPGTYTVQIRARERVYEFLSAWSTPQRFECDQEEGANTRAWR
Kind of experiment: SPR (Biacore), antibody immobilised on the chip, antigen in the mobile phase. In general terms: Surface plasmon resonance follows binding to a sensor surface in real time, without labels.

B1: CD123-9 VHH-mIgG2a Fc纳米抗体 (Fc fusion)
chain: EVQLVESGGGLVQPGGSLRLSCAASGFTFSSYDMSWVRQAPGKGLEWVSHIKPGPVGTDYTDSVKGRFTISRDNAKNTLYLQMDSLKTEDTAVYYCARGSRYSWNLDGPLRGQGTQVTVSS
notes: also called 抗CD123 VHH抗体CD123-9; CD123-9抗体; not shown: mouse IgG2a Fc tag from vector C-4pCP.Stuffer-mCg2a-FC
In the case of B1, the Kd (as a rule, the equilibrium constant for the complex coming apart) came out at 0.0466 nM; the koff (usually the rate constant with which the complex falls apart) is 1.42e-05 s⁻¹; the kon – broadly, the second-order rate constant of association – worked out at 305000 M⁻¹ s⁻¹.

B2: CD123-12 VHH-mIgG2a Fc纳米抗体 (Fc fusion)
chain: EVQLVESGGDLVQPGGSLRLSCAASGFTFSSYDMSWVRQAPGKGLEWVSHIKPGPVGTDYTDSVKGRFTISRDNAKNTLYLQMDSLKTEDTAVYYCARGSRYSWNLDGPLRGQGTQVTVSS
notes: also called 抗CD123 VHH抗体CD123-12; CD123-12抗体; not shown: mouse IgG2a Fc tag from vector C-4pCP.Stuffer-mCg2a-FC
For the molecule B2, the Kd is 0.0551 nM, the koff came to 1.62e-05 s⁻¹ and the kon was determined as 295000 M⁻¹ s⁻¹.
